Assay results published in publication PMC10397247.
Read-outs that look alike come from different tables or passages of the source.

Assays:
Experiment in all cases: two-hybrid library CCmax;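 note: natural log of median RNA to DNA barcode read ratio; higher means stronger binding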
4H2190-AA = molecular target: T1, 4H2190-AA; settings: mean of both orientations
T1 chain: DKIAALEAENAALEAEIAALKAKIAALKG

4H2944-AA = molecular target: T2, 4H2944-AA; settings: mean of both orientations
T2 chain: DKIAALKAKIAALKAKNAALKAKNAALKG

4H2393-AA = molecular target: T3, 4H2393-AA; settings: mean of both orientations
T3 chain: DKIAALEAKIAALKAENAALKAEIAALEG

4H881-AA = molecular target: T4, 4H881-AA; settings: mean of both orientations
T4 chain: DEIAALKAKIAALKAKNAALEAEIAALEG

4H2592-AA = molecular target: T5, 4H2592-AA; settings: mean of both orientations
T5 chain: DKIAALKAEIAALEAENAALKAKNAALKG

4H794-AA = molecular target: T6, 4H794-AA; settings: mean of both orientations
T6 chain: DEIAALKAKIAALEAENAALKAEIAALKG

4H2883-AA = molecular target: T7, 4H2883-AA; settings: mean of both orientations
T7 chain: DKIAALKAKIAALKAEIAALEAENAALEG

4H3427-AA = molecular target: T8, 4H3427-AA; settings: mean of both orientations
T8 chain: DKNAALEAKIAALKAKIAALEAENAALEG

4H2642-AA = molecular target: T9, 4H2642-AA; settings: mean of both orientations
T9 chain: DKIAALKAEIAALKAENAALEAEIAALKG

4H2837-AA = molecular target: T10, 4H2837-AA
T10 chain: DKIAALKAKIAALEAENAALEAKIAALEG

4H234-AA = molecular target: T11, 4H234-AA; settings: mean of both orientations
T11 chain: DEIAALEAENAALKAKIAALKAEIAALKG

4H2774-AA = molecular target: T12, 4H2774-AA; settings: mean of both orientations
T12 chain: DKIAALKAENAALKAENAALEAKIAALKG

4H48-AA = molecular target: T13, 4H48-AA; settings: mean of both orientations
T13 chain: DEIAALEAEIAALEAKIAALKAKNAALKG

4H2617-AA = molecular target: T14, 4H2617-AA; settings: mean of both orientations
T14 chain: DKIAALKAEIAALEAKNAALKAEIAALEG

4H3162-AA = molecular target: T15, 4H3162-AA; settings: mean of both orientations
T15 chain: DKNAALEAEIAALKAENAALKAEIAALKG

4H1874-AA = molecular target: T16, 4H1874-AA; settings: mean of both orientations
T16 chain: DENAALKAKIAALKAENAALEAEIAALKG

4H1351-AA = molecular target: T17, 4H1351-AA; settings: mean of both orientations
T17 chain: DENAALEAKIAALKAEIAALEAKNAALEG

4H3588-AA = molecular target: T18, 4H3588-AA; settings: mean of both orientations
T18 chain: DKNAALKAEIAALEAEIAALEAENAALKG

4H384-AA = molecular target: T19, 4H384-AA; settings: mean of both orientations
T19 chain: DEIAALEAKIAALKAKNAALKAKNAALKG

4H3378-AA = molecular target: T20, 4H3378-AA; settings: mean of both orientations
T20 chain: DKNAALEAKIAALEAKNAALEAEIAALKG

4H32-AA = molecular target: T21, 4H32-AA; settings: mean of both orientations
T21 chain: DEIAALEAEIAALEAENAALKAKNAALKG

4H1629-AA = molecular target: T22, 4H1629-AA; settings: mean of both orientations
T22 chain: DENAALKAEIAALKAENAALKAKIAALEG

4H1388-AA = molecular target: T23, 4H1388-AA; settings: mean of both orientations
T23 chain: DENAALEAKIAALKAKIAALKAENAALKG

4H1385-AA = molecular target: T24, 4H1385-AA; settings: mean of both orientations
T24 chain: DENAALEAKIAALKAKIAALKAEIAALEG

P9-AA = molecular target: T25, P9-AA; settings: mean of both orientations
T25 chain: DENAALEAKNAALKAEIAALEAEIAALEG

4H94-AA = molecular target: T26, 4H94-AA; settings: mean of both orientations
T26 chain: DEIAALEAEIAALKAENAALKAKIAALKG

4H2162-AA = molecular target: T27, 4H2162-AA; settings: mean of both orientations
T27 chain: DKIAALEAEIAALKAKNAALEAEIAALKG

4H485-AA = molecular target: T28, 4H485-AA; settings: mean of both orientations
T28 chain: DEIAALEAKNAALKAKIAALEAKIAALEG

4H310-AA = molecular target: T29, 4H310-AA; settings: mean of both orientations
T29 chain: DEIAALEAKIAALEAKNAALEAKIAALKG

4H2698-AA = molecular target: T30, 4H2698-AA
T30 chain: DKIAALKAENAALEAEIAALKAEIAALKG

4H2649-AA = molecular target: T31, 4H2649-AA; settings: mean of both orientations
T31 chain: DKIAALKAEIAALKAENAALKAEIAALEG

4H2580-AA = molecular target: T32, 4H2580-AA; settings: mean of both orientations
T32 chain: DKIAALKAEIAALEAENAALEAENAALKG

4H483-AA = molecular target: T33, 4H483-AA; settings: mean of both orientations
T33 chain: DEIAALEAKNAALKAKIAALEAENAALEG

4H464-AA = molecular target: T34, 4H464-AA
T34 chain: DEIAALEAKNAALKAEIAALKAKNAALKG

4H63-AA = molecular target: T35, 4H63-AA; settings: mean of both orientations
T35 chain: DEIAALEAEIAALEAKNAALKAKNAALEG

4H446-AA = molecular target: T36, 4H446-AA; settings: mean of both orientations
T36 chain: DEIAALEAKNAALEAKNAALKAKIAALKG

4H3969-AA = molecular target: T37, 4H3969-AA; settings: mean of both orientations
T37 chain: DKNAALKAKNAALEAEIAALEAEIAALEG

4H3939-AA = molecular target: T38, 4H3939-AA; settings: mean of both orientations
T38 chain: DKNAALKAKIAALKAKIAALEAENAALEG

4H3129-AA = molecular target: T39, 4H3129-AA; settings: mean of both orientations
T39 chain: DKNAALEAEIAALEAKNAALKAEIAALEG

4H3414-AA = molecular target: T40, 4H3414-AA; settings: mean of both orientations
T40 chain: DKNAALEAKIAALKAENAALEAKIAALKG

4H1626-AA = molecular target: T41, 4H1626-AA
T41 chain: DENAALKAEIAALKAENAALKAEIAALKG

B1: 4H2165-AA (peptide)
chain: DKIAALEAEIAALKAKNAALEAKIAALEG
4H2190-AA
  interaction score: -1.12
4H2944-AA
  interaction score: -1.53
4H2393-AA
  interaction score: -0.392
4H881-AA
  interaction score: 0.00404
4H2592-AA
  interaction score: -0.973
4H794-AA
  interaction score: -1.31
4H2883-AA
  interaction score: -1.67
4H3427-AA
  interaction score: -1.3
4H2642-AA
  interaction score: 0.223
4H2837-AA
  interaction score: 0.959
4H234-AA
  interaction score: -1.27
4H2774-AA
  interaction score: -0.839
4H48-AA
  interaction score: -1.31
4H2617-AA
  interaction score: 0.892

B2: 4H1153-AA (peptide)
chain: DENAALEAENAALEAEIAALEAEIAALEG
4H2190-AA
  interaction score: -0.187
4H3162-AA
  interaction score: -1.68
4H2944-AA
  interaction score: -0.0983
4H1874-AA
  interaction score: -1.61
4H2393-AA
  interaction score: -1.3
4H1351-AA
  interaction score: -1.51
4H881-AA
  interaction score: -1.26
4H3588-AA
  interaction score: -1.29
4H384-AA
  interaction score: -0.314
4H3378-AA
  interaction score: -1.72
4H794-AA
  interaction score: -1.49
4H2883-AA
  interaction score: -1.14
4H32-AA
  interaction score: -2.43
4H3427-AA
  interaction score: -0.781
4H2642-AA
  interaction score: -1.43
4H1629-AA
  interaction score: -1.34
4H1388-AA
  interaction score: 0.435
4H2837-AA; mean of both orientations
  interaction score: -1.49
4H234-AA
  interaction score: 0.621
4H48-AA
  interaction score: -1.38
4H2617-AA
  interaction score: -2.01

B3: 4H1350-AA (peptide)
chain: DENAALEAKIAALKAEIAALEAKIAALKG
4H384-AA
  interaction score: -0.758
4H1385-AA
  interaction score: 2.18

B4: 4H171-AA (peptide)
chain: DEIAALEAENAALEAKIAALKAENAALEG
P9-AA
  interaction score: -0.774
4H94-AA
  interaction score: -1.72
4H2162-AA
  interaction score: -1.5
4H384-AA
  interaction score: -1.36
4H485-AA
  interaction score: -0.423
4H310-AA
  interaction score: -1.66
4H2698-AA
  interaction score: -0.616
4H2649-AA
  interaction score: -0.999

B5: 4H1064-AA (peptide)
chain: DENAALEAEIAALEAKIAALEAKNAALKG
4H2580-AA
  interaction score: 1.19
4H483-AA
  interaction score: -0.857
4H464-AA
  interaction score: -1.84
4H63-AA
  interaction score: -1.29
4H446-AA
  interaction score: -1.26
4H3969-AA
  interaction score: -1.31
4H3939-AA
  interaction score: 2.3
4H3129-AA
  interaction score: -1.71
4H3414-AA
  interaction score: -0.952
4H2774-AA
  interaction score: -1.39

B6: 4H1626-AA (peptide)
chain: DENAALKAEIAALKAENAALKAEIAALKG
4H1626-AA
  interaction score: 1.63
4H94-AA
  interaction score: 1.29
4H2162-AA
  interaction score: -1.39
4H2592-AA
  interaction score: -1.24
4H485-AA
  interaction score: -1.46
4H2774-AA
  interaction score: -1.46
4H310-AA
  interaction score: -1.28
4H2698-AA; mean of both orientations
  interaction score: -1.09
4H2649-AA
  interaction score: 0.931

B7: 4H1257-AA (peptide)
chain: DENAALEAENAALKAKIAALKAEIAALEG
4H2580-AA
  interaction score: -1.12
4H483-AA
  interaction score: -1.91
4H464-AA; mean of both orientations
  interaction score: -1.07
4H63-AA
  interaction score: -1.72
4H446-AA
  interaction score: -1.65
4H3969-AA
  interaction score: 0.285
4H3939-AA
  interaction score: -1.27
4H3129-AA
  interaction score: -1.9
4H3414-AA
  interaction score: -1.01
4H3427-AA
  interaction score: -1.17
4H2774-AA
  interaction score: 2.09
